This test deals with COVID-19 virus main protease (M^pro) (COVID-19 virus). Kind of test: crystal structure.

Consider one substance from doi:10.1101/2020.02.26.964882.

Usually stoichiometry N stands for the number of molecules, sites or subunits per partner or assembly.

The substance “COVID-19 virus main protease (M^pro) (enzyme)” returned a stoichiometry N of 2.
